The text below walks through data of patent publication US7951914B2, “Genetically modified cyclic-nucleotide controlled ion channels” (Forschungszentrum Julich GmbH, priority 2001, dated 2011).

The target of experiment [1] is Drosophila dopamine receptor (Drosophila melanogaster, UniProt P41596). The settings on record: dopamine 25-600 nM, FIG. 5A.
Protocol: On the day after transfection, the cells were seeded into a multiwell plate with 96 wells. The cell density per well was 2×10^4 cells.
The fluorimetric measurements of intracellular Ca^2+ concentrations were carried out in multiwell plates with 96 wells (FIG. 5A-5G). The cells were loaded with the Ca^2+-sensitive fluorescent dye Fluo-4 one hour before the measurement. The loading solution contained 120 mM of NaCl, 3 mM of KCl, 50 mM of glucose, 10 mM of Hepes (pH 7.4), 3 mM of MgCl2 and 4 μm of Fluo4-AM (molecular probes). The measuring solution contained 120 mM of NaCl, 3 mM of KCl, 50 mM of glucose, 10 mM of Hepes (pH 7.4) and 3 mM of CaCl2. The time course of the change in fluorescence intensity after application of agonists, antagonists, enzyme activators or enzyme inhibitors was registered using a fluorescence reader (FLUOstar, BMG-Labtechnologies). The excitation wavelength was 485 nm. The emission wavelength was 520 nm.
The next experiment deals with T1, Adenosine A2B receptor (Rattus norvegicus, UniProt P29276).
T1 construct: host or cells: primary rat astrocytes
T1 sequence (P29276 1-332): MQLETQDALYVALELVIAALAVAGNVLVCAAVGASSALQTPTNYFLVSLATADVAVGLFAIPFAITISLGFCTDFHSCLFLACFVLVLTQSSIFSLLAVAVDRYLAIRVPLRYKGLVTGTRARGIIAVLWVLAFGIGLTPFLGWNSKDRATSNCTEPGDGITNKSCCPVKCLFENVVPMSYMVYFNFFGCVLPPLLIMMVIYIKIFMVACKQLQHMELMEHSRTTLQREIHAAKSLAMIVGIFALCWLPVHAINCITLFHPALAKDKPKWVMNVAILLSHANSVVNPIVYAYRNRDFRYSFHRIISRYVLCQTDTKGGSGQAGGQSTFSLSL
The settings on record: Peakman and Hill 1994, primary rat astrocytes; read-out: K1/2 value indicated in the literature; cited from earlier work.

The subject of experiment [2] is endogenous phosphodiesterase (PDE). As to the kind of experiment: Fluorescence-optical Ca2+ measurement: phosphodiesterase inhibition with T537M cAMP sensor. The settings on record: IBMX 0-100 μm, then 5 μm forskolin, FIG. 5E. Type of experiment: cell-based, human. The source says:
(§1) The excitation wavelength was 485 nm. The emission wavelength was 520 nm.
The effect of a phosphodiesterase (PDE) inhibitor on the forskolin-induced change in intracellular Ca^2+ concentration is shown. Cells which stably express the T537M mutants of the α3-CNG channel were first treated with different concentrations of the PDE inhibitor IBMX and then stimulated with 5 μm forskolin. […] The IBMX concentration was 0 μm (filled circles), 10 μm (open circles), 50 μm (filled triangles) or 100 μm (open triangles).

Experiment [3] concerns the target T2, corticotropin-releasing factor (CRF) receptor (Rattus norvegicus, UniProt P35353).
T2 construct: expressed in transfected cells; host or cells: HEK293 stably co-expressing pcCRFR1 and bovine α3 T537M
T2 sequence (P35353 24-415): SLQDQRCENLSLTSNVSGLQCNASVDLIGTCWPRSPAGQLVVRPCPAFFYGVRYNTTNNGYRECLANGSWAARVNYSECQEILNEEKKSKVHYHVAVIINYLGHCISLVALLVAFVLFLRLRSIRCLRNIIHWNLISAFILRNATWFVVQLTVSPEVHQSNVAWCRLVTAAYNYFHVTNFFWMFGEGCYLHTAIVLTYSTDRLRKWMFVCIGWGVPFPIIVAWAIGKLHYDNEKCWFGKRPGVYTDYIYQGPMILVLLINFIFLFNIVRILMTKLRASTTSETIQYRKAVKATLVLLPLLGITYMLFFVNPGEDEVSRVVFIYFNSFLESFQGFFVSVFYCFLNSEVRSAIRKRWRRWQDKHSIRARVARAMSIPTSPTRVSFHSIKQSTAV
As to the kind of experiment: Fluorescence-optical Ca2+ measurement: CRF receptor with T537M cAMP sensor. Type of experiment: cell-based. The following applies: agonist CRF 100-1,000 pM, FIG. 5B. On the procedure: The CRF receptor was cloned by carrying out a PCR of primary strand cDNA of rat hypophyses, using the primers #843 (5′-[…]-3′) (SEQ ID NO 11) and #842 (5′-[…]-3′) (SEQ ID NO 12). A 100 μl PCR mixture comprised 10 ng of primary strand cDNA, 1×PCR buffer for Taq polymerase incl. 1.5 mM of MgCl2, 200 μm of dNTPs, 1 U of Taq polymerase and in each case 150 ng of the two primers. The PCR conditions were as follows. 2 minutes of denaturation at 94° C., followed by 44 cycles of in each case 45 s at 94° C., 45 s at 56° C., 75 s at 72° C. The 1271 bp fragment was cloned via BamHI and SacI in pBluescript SK^—into (pBCRFR1). […]
FIG. 5B depicts the fluorimetrically measured change in intracellular Ca^2+ concentration in cells which stably express both the corticotropin-releasing factor (CRF) receptor and the T537M mutant of the α3-CNG channel. The time course of fluorescence intensity after stimulation of the cells with the agonist CRF is shown. […]
Cells which stably express the corticotropin-releasing factor (CRF) receptor and the T537M mutants of the α3-CNG channel were treated with the helical antagonist 9-41 (Rivier J., Rivier C., and Vale W. W. (1984) Synthetic competitive antagonists of corticotropin-releasing factor: effect on ACTH secretion in the rat. Science, 224, 889-891), before being stimulated with CRF (1 nM). The time course of fluorescence intensity is shown. […]

A further experiment deals with α3-CNG channel. As to the kind of experiment: Fluorescence-optical Ca2+ measurement: cAMP sensor sensitivity of α3-CNG channel variants after adenosine stimulation. Type of experiment: cell-based. The following applies: maximum stimulation with 25 μm adenosine.
Excerpt: as §1
The extent of the change in intracellular Ca^2+ concentration (fluorescence signal) was plotted as a function of time. […] Cells which stably express the T537S mutant of the α3-CNG channel were also stimulated for comparison.

In experiment [4] the test system is homooligomeric bovine α3 CNG channels. As to the kind of experiment: Patch clamp electrophysiology of inside-out patches: activation of heterologously expressed CNG channels by cAMP and cGMP. In kind it is biochemical. The following applies: for relative selectivity: times more selective for cGMP: quotient of K1/2 values. From the text: For this purpose, the corresponding nucleic acids were cloned into the expression vector pcDNA3.1 (Invitrogen) (see Methods). The expression constructs were then used to transform the cells of the human embryonic kidney cell line 293 (HEK293 cells) and the corresponding proteins were functionally expressed therein either transiently or stably (see Methods). The results of the studies are depicted in FIGS. 1-4. FIGS. 1-4 B depict the dependence of the average current on the cAMP concentration and cGMP concentration, respectively, in each case in the form of a dose-response relationship. The results of these measurements were used to calculate the sensitivity of the CNG channels to cAMP and cGMP. […] EMBO J., 13, 5040-5050. For electrophysiological characterization, the cells were transferred to glass slides which had been coated with poly L-lysine, on the day after transfection. The electrophysiological studies were then carried out on the following day. […] The electrophysiological characterization of the genetically modified CNG channels was carried out using the patch clamp technique under voltage clamping conditions. […] inside-out patches were excised from cells which stably expressed genetically modified or wild-type CNG channels. The bath solution containing different concentrations of cyclic nucleotides was used to flow over the membrane patches. Starting from a holding voltage of 0 mV, sudden voltage changes were applied to different test voltages between -100 mV and +100 mV at the patch with a step width of 20 mV. The currents were registered and analyzed using standard methods.
In general terms: Patch clamp records ionic current or voltage across a cell membrane.

Sequence of Drosophila dopamine receptor (P41596 20-511): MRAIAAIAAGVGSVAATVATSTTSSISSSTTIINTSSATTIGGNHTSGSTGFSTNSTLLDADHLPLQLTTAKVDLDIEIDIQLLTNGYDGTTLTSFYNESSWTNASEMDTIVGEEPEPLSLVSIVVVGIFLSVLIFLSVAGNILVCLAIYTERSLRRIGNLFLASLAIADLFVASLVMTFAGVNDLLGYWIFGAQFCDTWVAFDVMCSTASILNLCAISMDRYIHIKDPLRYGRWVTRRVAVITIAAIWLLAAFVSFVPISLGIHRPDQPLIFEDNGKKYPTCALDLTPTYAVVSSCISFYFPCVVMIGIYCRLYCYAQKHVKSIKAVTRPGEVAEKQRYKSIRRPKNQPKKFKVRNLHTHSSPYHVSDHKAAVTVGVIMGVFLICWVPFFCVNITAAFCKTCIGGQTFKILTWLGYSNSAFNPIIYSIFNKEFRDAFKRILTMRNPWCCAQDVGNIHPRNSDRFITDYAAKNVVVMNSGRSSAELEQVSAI

Take `NCCc1ccc(O)c(O)c1` [dopamine]: the “speed and extent of the change in Ca2+ concentration” value in experiment [1] is given as “depend on the dopamine concentration”.

Consider `Nc1ncnc2c1ncn2[C@@H]1O[C@H](CO)[C@@H](O)[C@H]1O` [adenosine], for which the EC50 at Adenosine A2B receptor is 5 µM.

`CC(C)Cn1c(=O)n(C)c(=O)c2[nH]cnc21` [IBMX]: the “extent of the forskolin-induced change in intracellular Ca2+ concentration” value in experiment [2] is “depend on the concentration of the PDE inhibitor”.

Turning to “CRF: corticotropin-releasing factor, agonist of the CRF receptor”, in experiment [3], the “speed and extent of the change in Ca2+” value is “depend on the CRF concentration”.

B1: Wild Type: wild-type α3 subunit of the bovine CNG channel (SEQ ID NO 2) (protein)
chain: MTEKANGVKSSPANNHNHHAPPAIKASGKDDHRASSRPQSAAADDTSSELQQLAEMDAPQQRRGGFRRIARLVGVLREWAYRNFREEEPRPDSFLERFRGPELHTVTTQQGDGKGDKDGEGKGTKKKFELFVLDPAGDWYYRWLFLIALPVLYNWCLLVARACFSDLQKGYYIVWLVLDYVSDVVYIADLFIRLRTGFLEQGLLVKDTKKLRDNYIHTMQFKLDVASIIPTDLIYFAVGIHNPEVRFNRLLHFARMFEFFDRTETRTSYPNIFRISNLILYILIIIHWNACIYYAISKSIGFGVDTWVYPNITDPEYGYLSREYIYCLYWSTLTLTTIGETPPPVKDEEYLFVIFDFLIGVLIFATIVGNVGSMISNMNATRAEFQAKIDAVKHYMQFRKVSKEMEAKVIRWFDYLWTNKKSVDEREVLKNLPAKLRAEIAINVHLSTLKKVRIFQDCEAGLLVELVLKLRPQVFSPGDYICRKGDIGKEMYIIKEGKLAVVADDGVTQYALLSAGSCFGEISILNIKGSKMGNRRTANIRSLGYSDLFCLSKDDLMEAVTEYPDAKRVLEERGREILMKEGLLDENEVAASMEVDVQEKLEQLETNMDTLYTRFARLLAEYTGAQQKLKQRITVLETKMKQNNEDDSLSDGMNSPEPPAEKP
modifications: Bovine
As to B1, the “change in fluorescence signal (intracellular Ca2+)” value in the experiment on α3-CNG channel is “no increase in the fluorescence signal”. For the same molecule, in experiment [4] (cAMP, +100 mV, normalized Hill equation, averaged parameters (FIG. 1C / 3C)), the “Hill coefficient n, cAMP, averaged” value was 2.0. The “Hill coefficient n, cGMP, averaged” value in experiment [4] (cGMP, +100 mV, normalized Hill equation, averaged parameters (FIG. 2C / 4C)) is 2.0. The “relative selectivity: times more selective for cGMP” value in experiment [4] was “about 50 times”.

B2: T537S: known bovine α3 CNG channel subunit in which threonine 537 is replaced with serine (protein, UniProt Q03041 1-663, looked up, variant T537S)
Cyclic nucleotide-gated …: MTEKANGVKSSPANNHNHHAPPAIKASGKDDHRASSRPQSAAADDTSSELQQLAEMDAPQQRRGGFRRIARLVGVLREWAYRNFREEEPRPDSFLERFRGPELHTVTTQQGDGKGDKDGEGKGTKKKFELFVLDPAGDWYYRWLFLIALPVLYNWCLLVARACFSDLQKGYYIVWLVLDYVSDVVYIADLFIRLRTGFLEQGLLVKDTKKLRDNYIHTMQFKLDVASIIPTDLIYFAVGIHNPEVRFNRLLHFARMFEFFDRTETRTSYPNIFRISNLILYILIIIHWNACIYYAISKSIGFGVDTWVYPNITDPEYGYLSREYIYCLYWSTLTLTTIGETPPPVKDEEYLFVIFDFLIGVLIFATIVGNVGSMISNMNATRAEFQAKIDAVKHYMQFRKVSKEMEAKVIRWFDYLWTNKKSVDEREVLKNLPAKLRAEIAINVHLSTLKKVRIFQDCEAGLLVELVLKLRPQVFSPGDYICRKGDIGKEMYIIKEGKLAVVADDGVTQYALLSAGSCFGEISILNIKGSKMGNRRSANIRSLGYSDLFCLSKDDLMEAVTEYPDAKRVLEERGREILMKEGLLDENEVAASMEVDVQEKLEQLETNMDTLYTRFARLLAEYTGAQQKLKQRITVLETKMKQNNEDDSLSDGMNSPEPPAEKP
Consider B2, for which, in the experiment on α3-CNG channel, the “change in fluorescence signal (intracellular Ca2+)” value is reported as “only a very low increase in the fluorescence signal”. Besides, the “relative selectivity: times more selective for cGMP” value in experiment [4] is reported as “about 20 times”.
